Test results taken from patent publication US20250262210A1 (TRUSTEES OF COLUMBIA UNIVERSITY IN THE CITY OF NEW YORK, published 2025).

What was measured:
Assay in all cases: IP/MS, LZTR1 R810W-FLAG, U87
[1] = target: T1, VPS18 (human, UniProt Q9P253 2-973)
T1 sequence (looked up): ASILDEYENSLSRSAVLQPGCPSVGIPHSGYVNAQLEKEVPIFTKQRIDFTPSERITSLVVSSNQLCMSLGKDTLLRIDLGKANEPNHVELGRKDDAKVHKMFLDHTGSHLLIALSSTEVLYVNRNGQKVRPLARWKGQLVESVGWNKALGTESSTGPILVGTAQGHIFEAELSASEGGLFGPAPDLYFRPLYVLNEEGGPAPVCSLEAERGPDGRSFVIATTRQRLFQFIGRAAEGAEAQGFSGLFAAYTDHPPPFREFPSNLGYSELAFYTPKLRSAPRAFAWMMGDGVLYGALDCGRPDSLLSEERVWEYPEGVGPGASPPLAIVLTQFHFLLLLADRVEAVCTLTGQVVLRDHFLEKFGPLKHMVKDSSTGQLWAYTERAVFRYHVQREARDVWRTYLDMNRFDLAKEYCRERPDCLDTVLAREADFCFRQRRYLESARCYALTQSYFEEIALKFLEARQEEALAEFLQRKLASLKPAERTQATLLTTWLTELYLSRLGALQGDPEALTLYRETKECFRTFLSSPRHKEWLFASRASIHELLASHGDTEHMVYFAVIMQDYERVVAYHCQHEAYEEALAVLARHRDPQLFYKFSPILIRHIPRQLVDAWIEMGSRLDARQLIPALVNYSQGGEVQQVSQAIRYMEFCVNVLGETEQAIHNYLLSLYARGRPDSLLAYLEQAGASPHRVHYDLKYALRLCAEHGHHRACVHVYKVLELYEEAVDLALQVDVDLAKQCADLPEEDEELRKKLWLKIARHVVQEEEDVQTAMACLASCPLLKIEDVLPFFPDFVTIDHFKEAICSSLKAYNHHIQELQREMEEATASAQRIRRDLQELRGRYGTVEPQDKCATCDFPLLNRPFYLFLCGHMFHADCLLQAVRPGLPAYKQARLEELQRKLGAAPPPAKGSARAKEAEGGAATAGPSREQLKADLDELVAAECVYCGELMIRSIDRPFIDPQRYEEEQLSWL
Method in brief: (§1)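 Extracted peptides in 3% acetonitrile/0.1% formic acid ran on a 50 cm C18 column into an Orbitrap Fusion, with MaxQuant identification and spectral counting.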

[2] = target: KNL1 (human, UniProt Q8NG31 1-2342, limits assumed)
Method in brief: as §1

[3] = target: IFT172 (human, UniProt Q9UG01 1-1749, limits assumed)
Method in brief: as §1

[4] = target: INTS1 (human, UniProt Q8N201 1-2190)
Method in brief: as §1

[5] = target: HTT (human, UniProt P42858 1-3142)
Method in brief: as §1

Measured: binding result

IFT172, sequence (Q9UG01 whole entry): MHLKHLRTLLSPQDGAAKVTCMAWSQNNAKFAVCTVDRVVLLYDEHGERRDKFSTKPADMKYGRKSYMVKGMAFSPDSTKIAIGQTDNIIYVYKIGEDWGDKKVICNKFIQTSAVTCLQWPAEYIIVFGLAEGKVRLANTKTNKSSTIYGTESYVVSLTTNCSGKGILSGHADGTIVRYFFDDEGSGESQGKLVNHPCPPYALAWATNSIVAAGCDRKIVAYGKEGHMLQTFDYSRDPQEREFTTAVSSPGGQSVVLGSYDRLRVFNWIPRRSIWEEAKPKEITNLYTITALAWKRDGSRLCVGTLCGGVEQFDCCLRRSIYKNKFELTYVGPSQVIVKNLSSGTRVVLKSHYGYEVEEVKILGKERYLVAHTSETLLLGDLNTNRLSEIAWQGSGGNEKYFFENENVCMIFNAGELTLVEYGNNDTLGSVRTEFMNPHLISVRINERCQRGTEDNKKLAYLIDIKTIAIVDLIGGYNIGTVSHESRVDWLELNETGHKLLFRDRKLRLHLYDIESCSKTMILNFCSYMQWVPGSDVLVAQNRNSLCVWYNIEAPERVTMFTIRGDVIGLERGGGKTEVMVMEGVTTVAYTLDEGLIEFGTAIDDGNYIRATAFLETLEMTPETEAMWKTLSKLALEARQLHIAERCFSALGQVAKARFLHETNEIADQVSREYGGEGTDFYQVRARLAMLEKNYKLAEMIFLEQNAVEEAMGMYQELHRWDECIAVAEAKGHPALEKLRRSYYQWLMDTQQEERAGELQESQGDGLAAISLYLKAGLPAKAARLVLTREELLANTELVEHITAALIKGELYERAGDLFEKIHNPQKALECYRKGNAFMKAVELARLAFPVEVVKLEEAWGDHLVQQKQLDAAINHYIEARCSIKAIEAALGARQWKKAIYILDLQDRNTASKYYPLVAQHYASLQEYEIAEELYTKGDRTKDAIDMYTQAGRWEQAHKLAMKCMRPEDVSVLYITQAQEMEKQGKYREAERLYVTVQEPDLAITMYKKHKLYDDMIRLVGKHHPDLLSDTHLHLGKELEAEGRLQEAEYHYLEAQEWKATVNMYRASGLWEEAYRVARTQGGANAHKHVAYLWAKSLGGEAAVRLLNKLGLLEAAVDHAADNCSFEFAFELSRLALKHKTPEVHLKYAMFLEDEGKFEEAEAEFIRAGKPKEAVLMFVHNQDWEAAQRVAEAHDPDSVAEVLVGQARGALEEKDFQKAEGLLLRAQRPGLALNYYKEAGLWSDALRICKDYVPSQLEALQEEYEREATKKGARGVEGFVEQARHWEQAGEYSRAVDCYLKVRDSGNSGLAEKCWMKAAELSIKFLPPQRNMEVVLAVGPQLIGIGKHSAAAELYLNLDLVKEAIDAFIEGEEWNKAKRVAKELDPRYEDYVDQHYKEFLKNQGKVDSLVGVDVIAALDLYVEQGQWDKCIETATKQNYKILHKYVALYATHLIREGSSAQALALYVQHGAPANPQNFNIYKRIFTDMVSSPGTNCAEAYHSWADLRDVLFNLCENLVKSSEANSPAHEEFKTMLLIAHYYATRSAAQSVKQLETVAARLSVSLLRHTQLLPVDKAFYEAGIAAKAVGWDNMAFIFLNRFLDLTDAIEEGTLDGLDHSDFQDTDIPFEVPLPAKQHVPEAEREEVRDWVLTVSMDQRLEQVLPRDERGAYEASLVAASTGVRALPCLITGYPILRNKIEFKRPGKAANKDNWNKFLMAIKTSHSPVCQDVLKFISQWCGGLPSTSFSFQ
HTT, sequence (P42858 whole entry): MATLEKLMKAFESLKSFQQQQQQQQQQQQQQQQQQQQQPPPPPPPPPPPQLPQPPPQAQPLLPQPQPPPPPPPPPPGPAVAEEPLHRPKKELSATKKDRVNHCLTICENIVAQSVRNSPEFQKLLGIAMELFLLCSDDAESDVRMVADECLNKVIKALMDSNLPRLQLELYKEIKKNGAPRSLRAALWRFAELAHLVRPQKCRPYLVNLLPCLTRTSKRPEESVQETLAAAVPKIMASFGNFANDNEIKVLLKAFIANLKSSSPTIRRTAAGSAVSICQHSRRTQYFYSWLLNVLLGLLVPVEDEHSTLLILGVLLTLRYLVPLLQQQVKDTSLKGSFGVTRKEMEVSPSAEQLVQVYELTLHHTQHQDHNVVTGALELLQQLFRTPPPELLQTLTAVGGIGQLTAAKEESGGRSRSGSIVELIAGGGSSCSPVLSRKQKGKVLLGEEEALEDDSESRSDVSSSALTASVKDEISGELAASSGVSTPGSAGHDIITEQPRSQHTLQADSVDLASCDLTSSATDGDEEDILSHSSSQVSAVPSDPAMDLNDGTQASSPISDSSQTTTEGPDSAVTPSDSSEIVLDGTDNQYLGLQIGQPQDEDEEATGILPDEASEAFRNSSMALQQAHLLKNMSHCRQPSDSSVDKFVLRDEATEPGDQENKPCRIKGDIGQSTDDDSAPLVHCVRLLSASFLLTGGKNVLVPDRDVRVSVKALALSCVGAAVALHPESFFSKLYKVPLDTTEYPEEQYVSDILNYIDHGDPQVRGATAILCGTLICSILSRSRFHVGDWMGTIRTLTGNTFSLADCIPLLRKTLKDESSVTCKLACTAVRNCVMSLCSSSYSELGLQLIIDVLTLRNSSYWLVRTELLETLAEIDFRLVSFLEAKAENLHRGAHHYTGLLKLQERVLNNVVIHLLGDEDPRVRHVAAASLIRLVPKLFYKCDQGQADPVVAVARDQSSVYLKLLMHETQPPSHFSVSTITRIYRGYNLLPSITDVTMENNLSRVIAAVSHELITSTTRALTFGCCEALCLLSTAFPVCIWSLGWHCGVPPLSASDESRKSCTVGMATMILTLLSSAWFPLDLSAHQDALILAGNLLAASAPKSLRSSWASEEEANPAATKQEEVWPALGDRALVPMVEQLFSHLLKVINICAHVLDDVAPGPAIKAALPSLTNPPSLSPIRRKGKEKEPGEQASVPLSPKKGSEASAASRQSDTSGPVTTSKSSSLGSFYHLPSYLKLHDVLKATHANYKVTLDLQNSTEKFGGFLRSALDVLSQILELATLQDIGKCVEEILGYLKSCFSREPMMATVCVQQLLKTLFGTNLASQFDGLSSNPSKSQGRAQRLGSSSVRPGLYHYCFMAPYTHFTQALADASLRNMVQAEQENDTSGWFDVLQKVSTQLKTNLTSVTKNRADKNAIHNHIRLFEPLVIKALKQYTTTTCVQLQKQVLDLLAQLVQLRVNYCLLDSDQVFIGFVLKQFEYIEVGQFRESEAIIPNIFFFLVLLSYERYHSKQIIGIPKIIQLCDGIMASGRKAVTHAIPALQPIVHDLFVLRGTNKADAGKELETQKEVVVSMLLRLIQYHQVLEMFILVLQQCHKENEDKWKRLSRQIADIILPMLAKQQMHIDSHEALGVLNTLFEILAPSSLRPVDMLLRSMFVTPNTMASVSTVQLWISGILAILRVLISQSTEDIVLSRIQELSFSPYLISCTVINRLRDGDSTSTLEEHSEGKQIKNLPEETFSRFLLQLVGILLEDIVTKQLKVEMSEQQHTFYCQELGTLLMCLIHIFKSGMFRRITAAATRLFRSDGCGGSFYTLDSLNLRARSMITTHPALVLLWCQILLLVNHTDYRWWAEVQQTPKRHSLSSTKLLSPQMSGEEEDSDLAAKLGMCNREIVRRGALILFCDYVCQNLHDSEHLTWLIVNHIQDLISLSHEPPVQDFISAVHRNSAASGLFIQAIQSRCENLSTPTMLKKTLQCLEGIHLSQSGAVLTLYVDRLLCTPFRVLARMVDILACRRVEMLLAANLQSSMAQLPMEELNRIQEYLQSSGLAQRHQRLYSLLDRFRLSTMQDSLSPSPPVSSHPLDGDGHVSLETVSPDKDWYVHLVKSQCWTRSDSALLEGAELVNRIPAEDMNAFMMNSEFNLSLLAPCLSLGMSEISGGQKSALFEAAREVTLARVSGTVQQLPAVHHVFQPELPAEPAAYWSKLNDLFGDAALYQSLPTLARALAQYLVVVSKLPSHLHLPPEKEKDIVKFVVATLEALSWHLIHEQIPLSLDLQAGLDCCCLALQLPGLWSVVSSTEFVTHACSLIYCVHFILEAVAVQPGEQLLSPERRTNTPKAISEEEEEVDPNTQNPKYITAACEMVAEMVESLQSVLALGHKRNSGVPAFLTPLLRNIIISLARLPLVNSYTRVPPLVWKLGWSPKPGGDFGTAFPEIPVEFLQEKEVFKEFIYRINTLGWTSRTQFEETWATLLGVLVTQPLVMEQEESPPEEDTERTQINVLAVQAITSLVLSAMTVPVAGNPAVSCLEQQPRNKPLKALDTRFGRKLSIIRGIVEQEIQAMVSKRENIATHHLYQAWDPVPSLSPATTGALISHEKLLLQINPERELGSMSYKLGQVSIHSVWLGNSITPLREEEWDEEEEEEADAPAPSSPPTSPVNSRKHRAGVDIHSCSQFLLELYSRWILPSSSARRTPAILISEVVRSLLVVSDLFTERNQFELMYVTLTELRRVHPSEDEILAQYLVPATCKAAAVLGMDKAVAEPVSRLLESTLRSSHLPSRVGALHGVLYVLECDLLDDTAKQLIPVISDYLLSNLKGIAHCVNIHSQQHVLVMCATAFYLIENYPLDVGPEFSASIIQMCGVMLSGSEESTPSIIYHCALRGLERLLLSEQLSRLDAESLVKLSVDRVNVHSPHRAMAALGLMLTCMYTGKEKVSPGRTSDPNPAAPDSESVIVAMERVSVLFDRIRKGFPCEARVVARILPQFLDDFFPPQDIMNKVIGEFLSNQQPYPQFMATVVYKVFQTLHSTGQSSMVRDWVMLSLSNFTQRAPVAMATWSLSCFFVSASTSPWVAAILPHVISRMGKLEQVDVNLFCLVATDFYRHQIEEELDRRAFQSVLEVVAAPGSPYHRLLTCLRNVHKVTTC

B1: LZTR1 R810W-FLAG (other, human, UniProt Q8N653 1-840, looked up)
chain: MAGPGSTGGQIGAAALAGGARSKVAPSVDFDHSCSDSVEYLTLNFGPFETVHRWRRLPPCDEFVGARRSKHTVVAYKDAIYVFGGDNGKTMLNDLLRFDVKDCSWCRAFTTGTPPAPRYHHSAVVYGSSMFVFGGYTGDIYSNSNLKNKNDLFEYKFATGQWTEWKIEGRLPVARSAHGATVYSDKLWIFAGYDGNARLNDMWTIGLQDRELTCWEEVAQSGEIPPSCCNFPVAVCRDKMFVFSGQSGAKITNNLFQFEFKDKTWTRIPTEHLLRGSPPPPQRRYGHTMVAFDRHLYVFGGAADNTLPNELHCYDVDFQTWEVVQPSSDSEVGGAEVPERACASEEVPTLTYEERVGFKKSRDVFGLDFGTTSAKQPTQPASELPSGRLFHAAAVISDAMYIFGGTVDNNIRSGEMYRFQFSCYPKCTLHEDYGRLWESRQFCDVEFVLGEKEECVQGHVAIVTARSRWLRRKITQARERLAQKLEQEAAPVPREAPGVAAGGARPPLLHVAIREAEARPFEVLMQFLYTDKIKYPRKGHVEDVLLIMDVYKLALSFQLCRLEQLCRQYIEASVDLQNVLVVCESAARLQLSQLKEHCLNFVVKESHFNQVIMMKEFERLSSPLIVEIVRRKQQPPPRTPLDQPVDIGTSLIQDMKAYLEGAGAEFCDITLLLDGHPRPAHKAILAARSSYFEAMFRSFMPEDGQVNISIGEMVPSRQAFESMLRYIYYGEVNMPPEDSLYLFAAPYYYGFYNNRLQAYCKQNLEMNVTVQNVLQILEAADKTQALDMKRHCLHIIVHQFTKVSKLPTLWSLSQQLLLDIIDSLASHISDKQCAELGADI
notes: Stably expressed in U87 cells by lentivirus; also called LZTR1-FLAG-R810W; LZTR1 RW; not shown: FLAG tag
binds: all assays above
